Among the data in publication PMC5289745 (Biochemistry, 2015) are Kd values, retold here.

For this assay, the target named is PcrV (residues 25–294) (P. aeruginosa, UniProt G3XD49 25-294). In words: SPR. A general note: Surface plasmon resonance follows binding to a sensor surface in real time, without labels.

B1: PcrG-GB1-His6 (natural protein)
chain: MGDMNEYTEDTLRATVQAAELAIRDSEERGRLLAEMWQGLGLAADAGELLFQAPERELARAAEEELLAELRRMRSSQPTQGEQGTRPRRPTPMRGLLIGSENLYFQ
As usually defined, the Kd is the free concentration of one partner at which half of the binding sites on the other are occupied at equilibrium, for simple one-to-one binding. As for B1, the affinity, expressed as Kd, was 0.026 µM.

B2: PcrG^9–76-GB1-His6 (domain or fragment)
chain: MEDTLRATVQAAELAIRDSEERGRLLAEMWQGLGLAADAGELLFQAPERELARAAEEELLAELRRMRSSGSENLYFQ
With B2, the Kd was 0.024 µM.
